# Laboratory results reported in patent US11274132B2, “Combined preparations of PKM2 modulators and HMGB1” (Ruprecht-Karls-Universität Heidelberg, priority 2015, dated 2022).
# B1: GInHMGB1: HMGB1 polypeptide with its B-Box domain tyrosine residues replaced by glutamine (SEQ ID NO:12), expressed in HEK cells (protein)
# chain: MGKGDPKKPRGKMSSYAFFVQTCREEHKKKHPDASVNFSEFSKKCSERWKTMSAKEKGKFEDMAKADKARYEREMKTYIPPKGETKKKFKDPNAPKRPPSAFFLFCSEQRPKIKGEHPGLSIGDVAKKLGEMWNNTAADDKQPQEKKAAKLKEKQEKDIAAQRAKGKPDAAKKGVVKAEKSKKKKEEEEDEEDEEDEEEEEDEEDEDEEEDDDDE
# modifications: HMGB1 Y -> Q mutein
# What was measured:
# [1] = tested on: colon carcinoma cell lines; experiment: MTT assay; assay type: cell-based, human; conditions: all colon carcinoma cell lines used; 0, 24, 48 hours; p<0.05, n=4
# Method: Assays were performed at three time points (0, 24, 48 hours), and the experiment was repeated four times. At each time point the cell viability was measured using the 3-(4,5-dimethylthiazol-2-yl)-2,5-diphenyl tetrazolium bromide (MTT) assay. The MTT assay was performed as described by Mosmann (Mosmann T. Rapid colorimetric assay for cellular growth and survival: application to proliferation and cytotoxicity assays. J Immunol Methods. 1983;65:55-63.). In brief, at each time point, medium was aspirated from the wells and MTT (1 mg/ml) was gently added to each well. The cells were incubated for 3 hours at 37° C. in 5% CO2, after which the MTT was aspirated and acidified isopropanol (0.04 M HCl) added to solubilize the reduced blue formazan crystals. Aliquots were transferred to a 96-well plate and the absorbance measured at a test filter of 590 nm and a reference filter of 630 nm on a 96-well plate reader.
# [2] = tested on: colon carcinoma cell lines; experiment: LDH release assay; assay type: cell-based, human; conditions: all colon carcinoma cell lines used; p<0.05, n=4
# Method: Lactate dehydrogenase activity was assayed spectrophotometrically by measuring the oxidation of NADH with pyruvate substrate at 340 nm as described in Bergmeyer and Berndt E. (1974). Results were analyzed using the following equation: […]
molecule,measurement,setting,value
B1,"proliferation (cell viability, MTT) compared to the untreated control",[1],significant decrease in proliferation
same,release of LDH into the medium compared to the untreated control,[2],significant release of LDH
